In patent publication US12072338B2, “Pharmaceutical peptides for the treatment of inflammatory diseases” (PROTAGONISTS LTD., priority 2007, dated 2024):

How the values were obtained:
[1] = molecular target: T1, Eotaxin (Homo sapiens, UniProt P51671); experiment: Micro-array analysis of chemokine binding peptides: Eotaxin; conditions: limit = start of the upper 75% of that peptide's response range
T1 construct: purchased 300-21
Protocol: (§1) (1) Printing: Chemokine (CK) solution (in water) was serially diluted with Print Reagent (GenTel BioSurfaces USA) to final concentrations of 50 μg and 25 μg/ml. BSA/BSA-Biotin control solutions (in water) were diluted with Print Reagent to 100 μg/ml. Amplified stock of M13 phage control (M13KEgIII Cloning Vector, New England Biolabs, Cat.No.E8101S) was stored in Tris Buffered Saline (TBS; pH7.5, 4° C.) and diluted with Print Reagent to the working titre (10^8 pfu/μl). An automated spotting robot (16 pin print tool, 0.4 mm head; BioRobotics, UK) was used to print the CK/BSA control/M13 control, 5 repeats per sample (CK 25 μg/ml and 50 μg/ml; BSA 100 μg/ml; M13 20 μl), on PATH Protein Microarray Slides (GenTel, Prod.No. 2-1005/-1025) at […], and 50-70% relative humidity. Printed micro-array slides were stored at Room Temperature (RT) or 4° C. for at least 24 h before use.
(§2) (2) Blocking: Block Buffer (500 μl/partition; PATHblock, GenTel, Prod.No. 2-1014) was applied to the slide for 1 hour at room temp (RT). After removal of Block Buffer, the slide was air dried for 25 minutes;
(§3) (3) Phage Presented Peptide Binding: Amplified recombinant phage stock was stored in TBS and diluted with Wash Buffer to working titer (10^7 pfu/μl). Recombinant phage suspension (300 μl) was applied per partition and incubated at RT for 1 hour with gentle agitation.
(§4) (4) First Washing: The slides were washed twice with Wash Buffer 300 μl/partition).
(§5) (5) Primary Antibody (Ab) Labeling: The slides were incubated with the Primary Ab (1 mg/ml diluted ×2500 (Wash Reagent), 300 μl; Mouse Anti-M13 monoclonal Ab; Amersham Biosciences, UK; Product Code 27-9420-01) for 45 minutes at RT.
(§6) (6) Second Washing: The slides were washed twice with Wash Buffer (300 μl/partition).
(§7) (7) Secondary Ab Labeling: The slides were incubated with Secondary Ab (1.5 mg/ml diluted ×5000 (Wash Reagent), 300 μl; Cy3-conjugated AffiniPure Goat Anti-Mouse IgG; Jackson ImmunoReserch Labs, USA; Product Code 115-165-062).
(§8) (8) Third Washing: The slides were washed twice with Wash Buffer (300 μl/partition).
(§9) (9) Rinse: the slides were rinsed twice with Rinse Buffer (PATHrinse, GenTel, Prod.No. 2-1018) then dried well.
(§10) (10) Scanning: The peptide-bound, labeled slide was scanned (Laser Intensity 80%, Gain 80%, Resolution 10 μm) with a ScanArray Life Scanner (Packard BioChip Technologies, USA).
(§11) (11) Analysis: Quantitative analysis of micro-array was performed by the SpotReader program of Niles Scientific (USA) and presented as Relative Fluorescence (RF) as a function of CK concentration. Micro-array readout (Cy3 fluorescence) was quantified to determine the relative binding affinities of a CBP for the CKs and by inference, the specificity of the CBP for binding to a CK.

[2] = molecular target: T2, RANTES (Homo sapiens, UniProt P13501); experiment: Micro-array analysis of chemokine binding peptides: RANTES; conditions: limit = start of the upper 75% of that peptide's response range
T2 construct: purchased 300-06
T2 sequence (P13501 24-91): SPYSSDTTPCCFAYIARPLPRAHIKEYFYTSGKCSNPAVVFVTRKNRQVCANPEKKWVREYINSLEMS
Protocol: as §1, §2, §3, §4, §5, §6, §7, §8, §9, §10, §11

[3] = molecular target: T3, SDF1-β (Homo sapiens, UniProt P48061); experiment: Micro-array analysis of chemokine binding peptides: SDF1-β
T3 construct: purchased 300-28b
Protocol: as §1, §2, §3, §4, §5, §6, §7, §8, §9, §10, §11

[4] = molecular target: T4, BCA-1 (Homo sapiens, UniProt O43927); experiment: Micro-array analysis of chemokine binding peptides: BCA-1
T4 construct: purchased 300-47
T4 sequence (O43927 23-109): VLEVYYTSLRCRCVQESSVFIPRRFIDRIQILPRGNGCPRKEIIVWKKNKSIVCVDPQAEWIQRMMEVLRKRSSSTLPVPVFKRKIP
Protocol: as §1, §2, §3, §4, §5, §6, §7, §8, §9, §10, §11

[5] = molecular target: T5, Mig (Homo sapiens, UniProt Q07325); experiment: Micro-array analysis of chemokine binding peptides: Mig; conditions: limit = start of the upper 75% of that peptide's response range
T5 construct: purchased 300-26
T5 sequence (Q07325 23-125): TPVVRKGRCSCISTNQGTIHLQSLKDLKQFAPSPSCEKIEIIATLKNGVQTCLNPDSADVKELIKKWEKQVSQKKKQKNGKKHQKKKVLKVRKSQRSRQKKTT
Protocol: as §1, §2, §3, §4, §5, §6, §7, §8, §9, §10, §11

[6] = molecular target: T6, I-309 (Homo sapiens, UniProt P22362); experiment: Micro-array analysis of chemokine binding peptides: I-309; conditions: limit = start of the upper 75% of that peptide's response range
T6 construct: purchased 300-37
T6 sequence (P22362 24-96): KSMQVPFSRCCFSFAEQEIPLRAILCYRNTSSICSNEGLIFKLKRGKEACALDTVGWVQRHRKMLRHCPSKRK
Protocol: as §1, §2, §3, §4, §5, §6, §7, §8, §9, §10, §11

[7] = molecular target: T7, Lymphotactin (Homo sapiens, UniProt P47992); experiment: Micro-array analysis of chemokine binding peptides: Lymphotactin
T7 construct: purchased 300-20
T7 sequence (P47992 22-114): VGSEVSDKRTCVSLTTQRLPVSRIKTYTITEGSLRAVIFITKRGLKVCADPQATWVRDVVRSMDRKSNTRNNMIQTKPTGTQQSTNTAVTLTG
Protocol: as §1, §2, §3, §4, §5, §6, §7, §8, §9, §10, §11

[8] = molecular target: T8, SDF1-α (Homo sapiens, UniProt P48061); experiment: Micro-array analysis of chemokine binding peptides: SDF1-α
T8 construct: purchased 300-28a
Protocol: as §1, §2, §3, §4, §5, §6, §7, §8, §9, §10, §11

[9] = molecular target: T9, Eotaxin 3 (Homo sapiens, UniProt Q9Y258); experiment: Micro-array analysis of chemokine binding peptides: Eotaxin 3; conditions: limit = start of the upper 75% of that peptide's response range
T9 construct: purchased 300-48
T9 sequence (Q9Y258 24-94): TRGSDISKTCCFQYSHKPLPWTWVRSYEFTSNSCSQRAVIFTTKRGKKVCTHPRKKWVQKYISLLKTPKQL
Protocol: as §1, §2, §3, §4, §5, §6, §7, §8, §9, §10, §11

[10] = system: IL-8; experiment: Micro-array analysis of chemokine binding peptides: IL-8; conditions: limit = start of the upper 75% of that peptide's response range
Protocol: as §1, §2, §3, §4, §5, §6, §7, §8, §9, §10, §11

[11] = molecular target: T10, TECK (Homo sapiens, UniProt O15444); experiment: Micro-array analysis of chemokine binding peptides: TECK
T10 construct: purchased 300-45
T10 sequence (O15444 24-150): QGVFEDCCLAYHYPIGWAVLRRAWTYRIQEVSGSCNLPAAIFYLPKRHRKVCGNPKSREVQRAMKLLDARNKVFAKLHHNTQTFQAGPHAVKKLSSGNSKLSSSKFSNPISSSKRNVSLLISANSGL
Protocol: as §1, §2, §3, §4, §5, §6, §7, §8, §9, §10, §11

[12] = molecular target: T11, Eotaxin 2 (Homo sapiens, UniProt O00175); experiment: Micro-array analysis of chemokine binding peptides: Eotaxin 2; conditions: limit = start of the upper 75% of that peptide's response range
T11 construct: purchased 300-33
T11 sequence (O00175 27-119): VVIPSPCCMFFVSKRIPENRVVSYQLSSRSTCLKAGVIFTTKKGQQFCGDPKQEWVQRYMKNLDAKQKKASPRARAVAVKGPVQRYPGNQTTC
Protocol: as §1, §2, §3, §4, §5, §6, §7, §8, §9, §10, §11

[13] = molecular target: T12, MCP-2 (Homo sapiens, UniProt P80075); experiment: Micro-array analysis of chemokine binding peptides: MCP-2; conditions: limit = start of the upper 75% of that peptide's response range
T12 construct: purchased 300-15
T12 sequence (P80075 24-99): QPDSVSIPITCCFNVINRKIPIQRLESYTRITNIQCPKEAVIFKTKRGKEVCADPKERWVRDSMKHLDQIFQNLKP
Protocol: as §1, §2, §3, §4, §5, §6, §7, §8, §9, §10, §11

[14] = molecular target: T13, I-TAC (Homo sapiens, UniProt O14625); experiment: Micro-array analysis of chemokine binding peptides: I-TAC; conditions: limit = start of the upper 75% of that peptide's response range
T13 construct: purchased 300-46
T13 sequence (O14625 22-94): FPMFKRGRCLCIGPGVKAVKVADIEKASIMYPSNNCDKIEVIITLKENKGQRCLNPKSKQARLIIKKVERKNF
Protocol: as §1, §2, §3, §4, §5, §6, §7, §8, §9, §10, §11

[15] = molecular target: T14, Fractalkine (Homo sapiens, UniProt P78423); experiment: Micro-array analysis of chemokine binding peptides: Fractalkine
T14 construct: purchased 300-31
T14 sequence (P78423 25-100 limits assumed): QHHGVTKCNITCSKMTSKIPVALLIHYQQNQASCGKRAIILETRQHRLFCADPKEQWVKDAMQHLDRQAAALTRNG
Protocol: as §1, §2, §3, §4, §5, §6, §7, §8, §9, §10, §11

[16] = molecular target: T15, MCP-4 (Homo sapiens, UniProt Q99616); experiment: Micro-array analysis of chemokine binding peptides: MCP-4; conditions: limit = start of the upper 75% of that peptide's response range
T15 construct: purchased 300-24
Protocol: as §1, §2, §3, §4, §5, §6, §7, §8, §9, §10, §11

[17] = molecular target: T16, MCP-1 (Homo sapiens, UniProt P13500); experiment: Micro-array analysis of chemokine binding peptides: MCP-1; conditions: limit = start of the upper 75% of that peptide's response range
T16 construct: purchased 300-04
Protocol: as §1, §2, §3, §4, §5, §6, §7, §8, §9, §10, §11

[18] = molecular target: T17, Exodus-2 (Homo sapiens, UniProt O00585); experiment: Micro-array analysis of chemokine binding peptides: Exodus-2
T17 construct: purchased 300-35
T17 sequence (O00585 24-134): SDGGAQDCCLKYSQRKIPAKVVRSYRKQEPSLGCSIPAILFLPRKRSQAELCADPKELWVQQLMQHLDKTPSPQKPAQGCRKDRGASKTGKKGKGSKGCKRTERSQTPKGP
Protocol: as §1, §2, §3, §4, §5, §6, §7, §8, §9, §10, §11

T8 sequence (P48061 22-89 limits assumed): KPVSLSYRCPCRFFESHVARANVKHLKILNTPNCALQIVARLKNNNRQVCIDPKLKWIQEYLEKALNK
IL-8, sequence (P10145 28-99 limits assumed): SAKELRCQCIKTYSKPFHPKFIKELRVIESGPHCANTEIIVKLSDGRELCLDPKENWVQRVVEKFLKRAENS
T1 sequence (P51671 24-97): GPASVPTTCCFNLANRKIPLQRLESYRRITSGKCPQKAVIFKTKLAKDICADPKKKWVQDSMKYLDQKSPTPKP
T16 sequence (P13500 24-99): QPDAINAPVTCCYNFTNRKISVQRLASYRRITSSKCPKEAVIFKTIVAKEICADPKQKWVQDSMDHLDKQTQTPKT
T15 sequence (Q99616 17-98): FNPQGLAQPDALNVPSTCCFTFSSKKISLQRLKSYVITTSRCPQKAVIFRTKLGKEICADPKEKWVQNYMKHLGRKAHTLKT
T3 sequence (P48061 22-93): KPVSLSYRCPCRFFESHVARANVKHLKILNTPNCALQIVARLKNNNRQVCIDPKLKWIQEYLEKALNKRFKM

Q: For DYDYG (listed as Homo sapiens) [Ph-p31], which “binding to Eotaxin with relatively high affinity (Relative Fluorescence Units)” value [1] is on record?
A: Its value is > 15,000 RFU.

Q: What about the “binding to RANTES with relatively high affinity (Relative Fluorescence Units)” value [2] of the same substance?
A: Its value is > 15,000 RFU.

Q: And the “binding to SDF1-β, stated in words” value [3]?
A: Its value is “bound”.

Q: And the “binding to BCA-1, stated in words” value [4]?
A: The value was “bound”.

Q: And the “binding to Mig with relatively high affinity (Relative Fluorescence Units)” value [5]?
A: The value was > 15,000 RFU.

Q: What about the “binding to I-309 with relatively high affinity (Relative Fluorescence Units)” value [6] of the same substance?
A: Its value is > 15,000 RFU.

Q: What about the “binding to Lymphotactin, stated in words” value [7] of the same substance?
A: Its value is “bound”.

Q: And the “binding to SDF1-α, stated in words” value [8]?
A: Its value is “bound”.

Q: And the “binding to Eotaxin 3 with relatively high affinity (Relative Fluorescence Units)” value [9]?
A: The value was > 15,000 RFU.

Q: And the “binding to IL-8 with relatively high affinity (Relative Fluorescence Units)” value [10]?
A: The value was > 15,000 RFU.

Q: What about the “binding to TECK, stated in words” value [11] of the same substance?
A: The value was “bound”.

Q: What about the “binding to Eotaxin 2 with relatively high affinity (Relative Fluorescence Units)” value [12] of the same substance?
A: Its value is > 15,000 RFU.

Q: What about the “binding to MCP-2 with relatively high affinity (Relative Fluorescence Units)” value [13] of the same substance?
A: The value was > 15,000 RFU.

Q: What about the “binding to I-TAC with relatively high affinity (Relative Fluorescence Units)” value [14] of the same substance?
A: The value was > 15,000 RFU.

Q: What about the “binding to Fractalkine, stated in words” value [15] of the same substance?
A: The value was “bound”.

Q: And the “binding to MCP-4 with relatively high affinity (Relative Fluorescence Units)” value [16]?
A: The value was > 15,000 RFU.

Q: What about the “binding to MCP-1 with relatively high affinity (Relative Fluorescence Units)” value [17] of the same substance?
A: The value was > 15,000 RFU.

Q: And the “binding to Exodus-2, stated in words” value [18]?
A: The value was “bound”.
